Test results reported in PMC6760448, “The DRS–AIMP2–EPRS subcomplex acts as a pivot in the multi-tRNA synthetase complex” (IUCrJ, 2019).

T1: N-terminally truncated human AIMP2 splice variant lacking exon 2 (residues Ser34–Gln45 and Asp115–Lys320) (human, UniProt Q13155 34-45; Q13155 115-320)
T1 construct: human AIMP2, residues Asp115–Lys320 (exons 3 and 4, GST domain); joined directly to Gln45 as in the splice variant AIMP2-DX2 that lacks exon 2; also called AIMP2-DX2-S34; AIMP2GST; source: E. coli BL21-CodonPlus (DE3)-RIPL; culture pooled with those of the partners, co-purified (HiTrap Chelating HP, Superdex 200); not shown: His6, C-terminal, kept
T1 sequence (looked up): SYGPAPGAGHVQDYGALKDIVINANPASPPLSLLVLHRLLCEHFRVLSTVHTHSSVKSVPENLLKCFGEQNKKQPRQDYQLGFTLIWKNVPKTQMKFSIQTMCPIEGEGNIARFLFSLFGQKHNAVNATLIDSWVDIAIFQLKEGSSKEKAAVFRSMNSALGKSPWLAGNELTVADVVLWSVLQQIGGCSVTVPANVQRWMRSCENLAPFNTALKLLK


Experiments:
[1] = biological target: the molecule itself; test: crystal structure; DRS–AIMP2-DX2-S34–EPRSGST (DA2E) subcomplex, 3.6 Å, space group P6_(1), two subcomplexes in the asymmetric unit; crystals at 22°C from sodium/potassium phosphate, 0.1 M CAPS pH 10.5, lithium sulfate
[2] = biological target: T1, N-terminally truncated human AIMP2 …; test: SEC; separately transformed strains pooled in one culture, proteins met on cell disruption by sonication; His6 affinity (HiTrap Chelating HP), then HiLoad 16/600 Superdex 200 pg in 50 mM HEPES–NaOH pH 8.0, 200 mM NaCl, 5 mM DTT, 1% glycerol; SDS–PAGE of the highest peak; conditions: partners not purified

binding result [2]	Binder	binding result [1]
	N-terminally truncated human aspartyl-tRNA synthetase (residues Ala21–Pro501) (enzyme, UniProt P14868 21-501, looked up, human aspartyl-tRNA synthetase (DRS), cytosolic, residues Ala21–Pro501; Homodimer in the crystal structure of the DA2E subcomplex; No removal of the His6 tag is described; also called DRS; source: E. coli Rosetta2 (DE3)pLysS; culture pooled with those of the partners, co-purified (HiTrap Chelating HP, Superdex 200); not shown: His6, N-terminal, kept) AEDYAKERYGISSMIQSQEKPDRVLVRVRDLTIQKADEVVWVRARVHTSRAKGKQCFLVLRQQQFNVQALVAVGDHASKQMVKFAANINKESIVDVEGVVRKVNQKIGSCTQQDVELHVQKIYVISLAEPRLPLQLDDAVRPEAEGEEEGRATVNQDTRLDNRVIDLRTSTSQAVFRLQSGICHLFRETLINKGFVEIQTPKIISAASEGGANVFTVSYFKNNAYLAQSPQLYKQMCICADFEKVFSIGPVFRAEDSNTHRHLTEFVGLDIEMAFNYHYHEVMEEIADTMVQIFKGLQERFQTEIQTVNKQFPCEPFKFLEPTLRLEYCEALAMLREAGVEMGDEDDLSTPNEKLLGHLVKEKYDTDFYILDKYPLAVRPFYTMPDPRNPKQSNSYDMFMRGEEILSGAQRIHDPQLLTERALHHGIDLEKIKAYIDSFRFGAPPHAGGGIGLERVTMLFLGLHNVRQTSMFPRDPKRLTP	binds
binds	C-terminally truncated human EPRSGST (Met1–Gln157) (domain or fragment, UniProt P07814 1-157, looked up, human glutamyl-prolyl-tRNA synthetase (EPRS), GST domain, residues Met1–Gln157; also called GST domain of glutamyl-prolyl-tRNA synthetase; source: E. coli BL21-CodonPlus (DE3)-RIPL; culture pooled with those of the partners, co-purified (HiTrap Chelating HP, Superdex 200); not shown: His6, C-terminal, kept) MATLSLTVNSGDPPLGALLAVEHVKDDVSISVEEGKENILHVSENVIFTDVNSILRYLARVATTAGLYGSNLMEHTEIDHWLEFSATKLSSCDSFTSTINELNHCLSLRTYLVGNSLSLADLCVWATLKGNAAWQEQLKQKKAPVHVKRWFGFLEAQ	
